Substrate: O=[P@]1(S)OC[C@H]2OC3[C@H](F)[C@@H]2O[P@](=O)(S)OC[C@H]2O[C@H]([C@H](F)[C@@H]2O1)n1cnc2c(ncnc21)NC/C=C/CNc1ncnc2c1ncn23
Assay: Uptake in HEK293 cells overexpressing OATP1B1
Assay type: in vitro ADME, human
Conditions: other: Simcyp input parameter, Table 3; 37.0 °C
Procedure: TransportoCells™ (Corning, N.Y., USA) expressing OATP2B1, NTCP, and HEK293-FT cells stably transfected with the vector containing OATP1B1 cDNA or OATP1B3 cDNA or empty vector were grown in a Dulbecoo's modified Eagle's medium fortified with 10% fetal calf serum and 2 mmol/L sodium butyrate (for NTCP only) in a humidified incubator at 37° C. and 5% CO2. Cells were harvested at 90% confluence and then seeded in poly-D-lysine-coated 24-well 24 h prior to transporter assay. Cells were washed twice and pre-incubated with 200 μL of pre-warmed Krebs-Henseleit buffer. After pre-incubation, cells were incubated with 3 or 10 μmol L-1 of Compound 1 in presence or absence of 100 μmol L-1 of inhibitors (Rifamycin SV for OATP2B1, Troglitazone for NTCP, Rifamycin for OATP1B1 and OATP1B3). The transport reaction was terminated by aspirating the buffer from the wells at designated time. After washing three times with 200 μL of ice-cold Krebs-Henseleit buffer, the cells were lysed and the resulting cellular lysates were analyzed by LC-MS/MS.
Concentration-dependent uptake of Compound 1 via OATP1B1 and OATP1B3 were conducted with a concentration range of 0.25-100 μmol L-1 under linear uptake. All experiments were run in triplicates.

B1: OATP1B1 (Homo sapiens) (protein)
chain: MDQNQHLNKTAEAQPSENKKTRYCNGLKMFLAALSLSFIAKTLGAIIMKSSIIHIERRFEISSSLVGFIDGSFEIGNLLVIVFVSYFGSKLHRPKLIGIGCFIMGIGGVLTALPHFFMGYYRYSKETNINSSENSTSTLSTCLINQILSLNRASPEIVGKGCLKESGSYMWIYVFMGNMLRGIGETPIVPLGLSYIDDFAKEGHSSLYLGILNAIAMIGPIIGFTLGSLFSKMYVDIGYVDLSTIRITPTDSRWVGAWWLNFLVSGLFSIISSIPFFFLPQTPNKPQKERKASLSLHVLETNDEKDQTANLTNQGKNITKNVTGFFQSFKSILTNPLYVMFVLLTLLQVSSYIGAFTYVFKYVEQQYGQPSSKANILLGVITIPIFASGMFLGGYIIKKFKLNTVGIAKFSCFTAVMSLSFYLLYFFILCENKSVAGLTMTYDGNNPVTSHRDVPLSYCNSDCNCDESQWEPVCGNNGITYISPCLAGCKSSSGNKKPIVFYNCSCLEVTGLQNRNYSAHLGECPRDDACTRKFYFFVAIQVLNLFFSALGGTSHVMLIVKIVQPELKSLALGFHSMVIRALGGILAPIYFGALIDTTCIKWSTNNCGTRGSCRTYNSTSFSRVYLGLSSMLRVSSLVLYIILIYAMKKKYQEKDINASENGSVMDEANLESLNKNKHFVPSAGADSETHC
notes: expressed in transfected cells; host or cells: HEK293-FT
Km: 2.200 µM

Source: patent US12564600B2, “System for enhancing therapeutic compliance of the anti-cancer compound E7766” (Eisai R&D Management Co., Ltd., priority 2019, dated 2026)
